Data on 4 molecules can be found in patent publication US20150376286A1 (Amgen, published 2015).

In assay [1] the target is T1, human CGRP receptor (CRLR + RAMP1) (human, UniProt Q16602 23-461; O60894 27-148).
T1 construct: also called hCGRP R; huCGRP R
Description: FACS on AM-1 CHO huCGRP R cells, KinExA n-curve analysis. The procedure:
(§1) Briefly, AM-1 CHO huCGRP R-expressing cells, prepared as described above, were plated in 96-well plates at densities of 16,000 or 160,000 cells per well in DMEM medium containing 10% FBS, NEAA, PS, L Glut, NaPyr and 0.05% sodium azide. […] After an overnight incubation at 4° C. in a total volume of 120 μl, on a plate shaker, the cells were washed 2× with PBS+2% FBS, centrifuging and discarding supernatant each time. 100 μl/well of G anti-Hu Fc Cy5 (5 μg/mL; Jackson ImmunoResearch Laboratories Inc., West Grove, Pa., USA) containing 7AAD (5 μl/well) was then added and incubated at 4° C. for 40 min. The cells were washed 2× with PBS+2% FBS, centrifuging and discarding the supernatant each time. 100 μl PBS+2% FBS buffer was then added and analyzed by FACS to determined the binding geomean. The Kd was calculated using KinExA software by taking the negative geomean at each antibody concentration as the amount of free Ab present Rathanaswami, et al., Biochemical and Biophysical Research Communications 334 (2005) 1004-1013.

In assay [2] the target is T1, human CGRP receptor (CRLR + RAMP1). Description: FACS Kd determination on AM-1 CHO huCGRP R cells; right-hand curve, cell density not labelled on the sheet. As to the method: as §1
For assay [3] the target is unchanged. The assay can be described thus: 125I-CGRP competition binding, HTB-10 cell membranes. The procedure:
The plates were incubated at room temperature for 2 hours with shaking at 60 rpm, and then the contents of each well were filtered over 0.5% polyethyleneimine (PEI)-treated (for at least one hour) GF/C 96-well filter plates. The GF/C filter plates were washed six times with ice-cold 50 mM Tris, pH 7.5 and dried in an oven at 55° C. for 1 hour. The bottoms of the GF/C plates were then sealed. 40 μl Microscint™ 20 was added to each well, the tops of the GF/C plates were sealed with TopSeal™-A (a press-on adhesive sealing film), and the GF/C plates were counted with TopCount NXT (Packard). The data were analyzed using Prizm (GraphPad Software Inc.)

Assay [4] concerns the target T2, cynomolgus CGRP receptor (cynoCRLR + cynoRAMP1) (cynomolgus monkey).
T2 chain 1: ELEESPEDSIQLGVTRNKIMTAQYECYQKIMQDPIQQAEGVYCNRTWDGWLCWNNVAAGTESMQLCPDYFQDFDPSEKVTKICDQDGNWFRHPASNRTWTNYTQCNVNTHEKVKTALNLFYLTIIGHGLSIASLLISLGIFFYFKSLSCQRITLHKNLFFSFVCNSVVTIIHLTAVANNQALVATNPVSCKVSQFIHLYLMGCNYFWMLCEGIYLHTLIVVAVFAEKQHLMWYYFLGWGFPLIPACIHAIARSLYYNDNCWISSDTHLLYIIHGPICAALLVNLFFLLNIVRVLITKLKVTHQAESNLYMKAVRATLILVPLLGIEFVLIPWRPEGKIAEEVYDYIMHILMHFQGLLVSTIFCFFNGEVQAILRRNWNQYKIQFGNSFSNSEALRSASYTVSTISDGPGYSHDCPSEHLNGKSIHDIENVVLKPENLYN
T2 chain 2: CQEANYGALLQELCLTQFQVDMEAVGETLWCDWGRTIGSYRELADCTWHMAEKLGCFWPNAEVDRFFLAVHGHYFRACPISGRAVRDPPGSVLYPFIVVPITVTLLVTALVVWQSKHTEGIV
Description: cell-based or functional assay.

The target of assay [5] is human amylin AMY1 receptor (hCTR + hRAMP1) (human, UniProt P30988 25-474). The assay can be described thus: cell-based or functional assay.
In assay [6] the target is human adrenomedullin receptor 1 (hCRLR + hRAMP2) (human, UniProt O60895 43-175). Description: cell-based or functional assay.
Assay [7] has as its target human adrenomedullin receptor 2 (hCRLR + hRAMP3) (human, UniProt O60896 24-148). The assay can be described thus: cell-based or functional assay.
Assay [8] concerns the target rat CGRP receptor (rat, UniProt Q63118 24-464; Q9JJ74 27-148). The assay can be described thus: cell-based or functional assay.
For assay [9], the target named is T1, human CGRP receptor (CRLR + RAMP1). Description: cell-based or functional assay.
Assay [10] shares this target. Description: FACS Kd determination on AM-1 CHO huCGRP R cells; left-hand curve, cell density not labelled on the sheet. As to the method: as §1
For assay [11], the target named is T3, soluble CGRP receptor-muFc fusion protein (human).
T3 construct: also called CGRP R-muFc; not shown: mouse Fc
T3 chain 1: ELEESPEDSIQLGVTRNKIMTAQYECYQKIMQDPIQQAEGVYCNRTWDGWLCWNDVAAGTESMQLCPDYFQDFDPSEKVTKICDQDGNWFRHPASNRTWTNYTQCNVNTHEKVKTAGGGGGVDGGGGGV
T3 chain 2: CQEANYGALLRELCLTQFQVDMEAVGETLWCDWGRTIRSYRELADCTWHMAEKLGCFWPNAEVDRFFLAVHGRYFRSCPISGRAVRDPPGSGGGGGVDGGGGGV
Description: Western blot. The procedure:
The sample containing βME was then boiled for 4 min. […] Gels were electroblotted onto 0.2 μm nitrocellulose filters (Invitrogen). The blots were washed with Tris-buffered saline+1% Tween 20 (TBST) and then blocked with TBST+5% powered dry milk for 30 min. The blots were cut into strips along the molecular weight marker lanes. […] Blots were incubated with the antibodies for one hour followed by 3×10 min washes with TBST+1% milk. The blots treated with the huCGRP R antibodies were then incubated with goat anti-mouse IgG-Fc-HRP (1:10,000 in TBST+1% milk) and the blots treated with anti-huRAMP1 (N-20 anti-RAMP1 goat polyclonal antibody, Santa Cruz Biotech, CA) were incubated with rabbit anti-goat IgG-Fc-HRP (1:10,000) for 20 min. Blots were washed 3×15 min with TBST. The huCGRP R and anti-huRAMP1 antibody blots were treated with Pierce Supersignal West Pico Detection reagent, and the anti-mouse and anti-human IgG-Fc-HRP blots were treated with Pierce standard Detection Reagent (1 min.). Blots were then exposed with Kodak Biomax MS X-ray film.
For orientation: In western blotting, separated proteins are transferred to a membrane and probed.

Assay [12] deals with T4, chimeric CGRP receptor: CRLR chimera #1 (L24 to Q33) + RAMP1 wt (human/rat chimera; human, UniProt Q16602 1-461; O60894 27-148).
T4 construct: also called CRLR L24-Q33+RAMP wt
The assay can be described thus: FACS on transfected 293-6E cells. The procedure:
(§2) Cells were harvested after 72 hr, washed with PBS+0.5% BSA, and counted. Each transfected cell line was resuspended at a dilution of 5×10⁵ cells per 100 μl PBS/BSA. 100 μl of cell suspension was aliquot per well in a 96-well round-bottom plate (Falcon). The cells were pelleted at 1200 rpm for 5 min. […] Cells were incubated on ice for 1 hr. and then washed twice with PBS/BSA. […] Cells were incubated on ice in the dark for 1 hr. and then washed twice with PBS/BSA. Cells were resuspended in 200 μl PBS/BSA and analyzed using a FACS Calibur.

The target of assay [13] is T5, chimeric CGRP receptor: CRLR wt + RAMP1 chimera #2 (Q43 to E53) (human; human/rat chimera, UniProt Q16602 23-461; O60894 27-148).
T5 construct: also called CRLR wt+RAMP1 Q43-E53
T5 chain 1: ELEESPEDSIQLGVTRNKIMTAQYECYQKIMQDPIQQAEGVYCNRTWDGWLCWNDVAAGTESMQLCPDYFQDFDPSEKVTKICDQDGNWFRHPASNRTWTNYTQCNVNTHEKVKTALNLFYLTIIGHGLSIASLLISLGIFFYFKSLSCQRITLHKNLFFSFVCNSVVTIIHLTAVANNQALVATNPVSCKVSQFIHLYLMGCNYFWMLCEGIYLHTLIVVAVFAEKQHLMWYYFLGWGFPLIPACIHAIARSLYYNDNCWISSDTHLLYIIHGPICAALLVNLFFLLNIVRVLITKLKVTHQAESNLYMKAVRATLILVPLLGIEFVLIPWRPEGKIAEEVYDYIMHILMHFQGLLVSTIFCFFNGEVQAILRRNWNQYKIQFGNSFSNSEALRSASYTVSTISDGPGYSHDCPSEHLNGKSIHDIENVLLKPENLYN
T5 chain 2: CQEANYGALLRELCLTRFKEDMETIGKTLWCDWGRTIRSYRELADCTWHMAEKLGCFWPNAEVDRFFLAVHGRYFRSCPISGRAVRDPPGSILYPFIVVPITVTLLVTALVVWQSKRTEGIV
Description: FACS on transfected 293-6E cells. The procedure:
as §2

In assay [14] the target is T6, chimeric CGRP receptor: CRLR wt + RAMP1 chimera #3 (R67 to E78) (human; human/rat chimera, UniProt Q16602 23-461; O60894 27-148).
T6 construct: also called CRLR wt+RAMP1 R67-E78
T6 chain 1: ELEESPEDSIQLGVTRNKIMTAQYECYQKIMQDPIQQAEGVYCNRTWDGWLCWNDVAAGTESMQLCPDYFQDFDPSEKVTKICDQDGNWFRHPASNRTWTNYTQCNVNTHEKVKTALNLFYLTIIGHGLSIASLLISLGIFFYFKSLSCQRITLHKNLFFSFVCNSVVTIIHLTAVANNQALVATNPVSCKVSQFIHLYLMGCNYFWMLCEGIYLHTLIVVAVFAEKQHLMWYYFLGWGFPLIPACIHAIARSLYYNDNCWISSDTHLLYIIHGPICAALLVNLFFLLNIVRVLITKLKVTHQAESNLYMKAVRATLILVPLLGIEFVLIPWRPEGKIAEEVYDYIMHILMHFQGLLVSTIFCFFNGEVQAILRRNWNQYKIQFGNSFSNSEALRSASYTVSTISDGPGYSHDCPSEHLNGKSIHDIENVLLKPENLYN
T6 chain 2: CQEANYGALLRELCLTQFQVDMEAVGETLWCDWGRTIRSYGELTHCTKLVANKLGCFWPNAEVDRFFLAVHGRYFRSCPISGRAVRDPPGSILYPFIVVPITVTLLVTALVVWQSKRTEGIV
The assay can be described thus: FACS on transfected 293-6E cells. As to the method: as §2

Assay [15] addresses T1, human CGRP receptor (CRLR + RAMP1). Description: FACS on transfected 293-6E cells. The procedure: as §2

B1: 12G8 (antibody, human IgG2, lambda, V domains shown)
VH: QVQLVESGGGVVQPGRSLRLSCAASGFTFSSFGMHWVRQAPGKGLEWVAVISFDGSIKYSVDSVKGRFTISRDNSKNTLFLQMNSLRAEDTAVYYCARDRLNYYDSSGYYHYKYYGLAVWGQGTTVTVSS
VL: QSVLTQPPSVSAAPGQKVTISCSGSSSNIGNNYVSWYQQLPGTAPKLLIYDNNKRPSGIPDRFSGSKSGTSATLGITGLQTGDEADYYCGTWDSRLSAVVFGGGTKLTVLG
notes: also called 12G8.2
For the molecule B1, in assay [1], the Kd (in general, the free concentration of one partner at which half of the binding sites on the other are occupied at equilibrium, for simple one-to-one binding) was 1.4 nM. The EC50 (read off the curve) (in general, the concentration giving half of the maximal effect) in assay [2] is roughly 8 nM; in assay [10], roughly 2 nM. The Ki (commonly the dissociation constant of the complex between target and ligand, obtained from inhibition or displacement) in assay [3] worked out at 0.017 nM. Moreover, the “cAMP assay IC50” value in assay [4] was 2.74 nM; in [5], greater than 1000 nM; in [6] it was greater than 1000 nM; in assay [7] it was greater than 1000 nM; in [8] it was greater than 1000 nM; in assay [9], 2.14 nM.

B2: 4E4 (antibody, human IgG2, lambda, V domains shown)
VH: QVQLVESGGGVVQPGRSLRLSCAASGFTFSSFGMHWVRQAPGKGLEWVAVISFDGSIKYSVDSVKGRFTISRDNSKNTLFLQMNSLRAEDTAVYYCARDRLNYYDSSGYYHYKYYGMAVWGQGTTVTVSS
VL: QSVLTQPPSVSAAPGQKVTISCSGSSSNIGNNYVSWYQQLPGTAPKLLIYDNNKRPSGIPDRFSGSKSGTSTTLGITGLQTGDEADYYCGTWDSRLSAVVFGGGTKLTVLG
notes: also called 04E4; 04E4.2
With B2, the “cAMP assay IC50” value in [4] is 3.52 nM; in assay [5], greater than 1000 nM; in assay [6], greater than 1000 nM; in assay [7] it was greater than 1000 nM; in [8] it was greater than 1000 nM. Besides, the binding result in assay [11] is on record as “binds”.

B3: 3B6 (antibody, human IgG2, lambda, V domains shown)
VH: not shown
VL: SSELTQDPTVSVALGQTVKITCQGDSLRSFYASWYQQKPGQAPVLVFYGKNNRPSGIPDRFSGSSSGNTASLTITGAQAEDEADYYCNSRDSSVYHLVLGGGTKLTVLG
notes: also called 03B6; 03B6.2
As to B3, the “cAMP assay IC50” value was 2.22 nM in assay [4]; greater than 1000 nM in assay [5]; greater than 1000 nM in assay [6]; greater than 1000 nM in assay [7]; greater than 1000 nM in [8]. In addition, the binding result in [11] is listed as “binds”.

B4: 33B5 (antibody, V domains shown)
VH: not shown
VL: DIQMTQSPSSLSASVGDRVTITCRASQGIRNDLGWYQQKPGKAPKRLIYVASSLQSGVPSRFSGSGSGTEFTLTISSLQPEDFATYYCLQYNTYPLTFGGGTKVEIK
Regarding B4, the binding result in [12], in assay [13], in assay [14] and in assay [15] was “binds” in each case.
